Changes are numbered by the printed parent chain. Each block holds one binder with its values, some of them ahead of it.
What was measured:
[1] = target: T1, full-length human CD22 fused with flag and Myc tags at the C-terminus, on HEK293 or K562 cells (human, UniProt P20273 20-847); test: FACS, scFv titrated on CD22-expressing cells, anti-His Alexa 488
T1 construct: whole, on cells; also called CD22/K562; CD22/HEK293; not shown: C-terminal flag and Myc tags of the pCMV6-Entry vector
T1 sequence (looked up): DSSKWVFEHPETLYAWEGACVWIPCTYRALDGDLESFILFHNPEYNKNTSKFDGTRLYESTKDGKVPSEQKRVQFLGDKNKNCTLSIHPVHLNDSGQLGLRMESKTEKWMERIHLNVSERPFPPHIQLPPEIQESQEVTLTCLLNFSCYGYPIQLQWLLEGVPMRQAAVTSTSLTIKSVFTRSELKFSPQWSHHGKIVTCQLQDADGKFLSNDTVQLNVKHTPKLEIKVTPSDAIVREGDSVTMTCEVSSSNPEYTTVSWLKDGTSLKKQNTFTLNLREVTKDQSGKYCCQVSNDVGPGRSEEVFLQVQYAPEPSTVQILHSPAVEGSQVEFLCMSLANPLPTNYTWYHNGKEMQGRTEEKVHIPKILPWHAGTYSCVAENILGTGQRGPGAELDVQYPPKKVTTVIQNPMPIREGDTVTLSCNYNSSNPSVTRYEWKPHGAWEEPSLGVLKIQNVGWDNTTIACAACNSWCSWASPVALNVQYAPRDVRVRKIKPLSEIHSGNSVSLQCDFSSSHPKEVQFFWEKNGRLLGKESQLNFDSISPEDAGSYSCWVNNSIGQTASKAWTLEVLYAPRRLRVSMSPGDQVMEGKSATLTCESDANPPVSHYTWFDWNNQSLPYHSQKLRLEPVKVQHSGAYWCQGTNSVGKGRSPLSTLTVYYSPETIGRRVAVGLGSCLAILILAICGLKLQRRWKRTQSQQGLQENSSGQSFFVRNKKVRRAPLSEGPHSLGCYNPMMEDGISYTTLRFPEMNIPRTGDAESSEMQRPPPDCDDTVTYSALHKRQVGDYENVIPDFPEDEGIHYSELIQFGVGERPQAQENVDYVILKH

[2] = target: T2, human CD22-Fc fusion protein (human, UniProt P20273 20-687, limits assumed); test: SPR Biacore T200; CD22-Fc captured on Protein G chip, scFv as analyte;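 further: run in 1×HBST buffer, with the response of reference flow cell 1 subtracted from the CD22 capture cell and kinetics fitted in Biacore T200 evaluation software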
T2 construct: also called recombinant CD22-Fc fusion protein; not shown: Fc part
T2 sequence (looked up): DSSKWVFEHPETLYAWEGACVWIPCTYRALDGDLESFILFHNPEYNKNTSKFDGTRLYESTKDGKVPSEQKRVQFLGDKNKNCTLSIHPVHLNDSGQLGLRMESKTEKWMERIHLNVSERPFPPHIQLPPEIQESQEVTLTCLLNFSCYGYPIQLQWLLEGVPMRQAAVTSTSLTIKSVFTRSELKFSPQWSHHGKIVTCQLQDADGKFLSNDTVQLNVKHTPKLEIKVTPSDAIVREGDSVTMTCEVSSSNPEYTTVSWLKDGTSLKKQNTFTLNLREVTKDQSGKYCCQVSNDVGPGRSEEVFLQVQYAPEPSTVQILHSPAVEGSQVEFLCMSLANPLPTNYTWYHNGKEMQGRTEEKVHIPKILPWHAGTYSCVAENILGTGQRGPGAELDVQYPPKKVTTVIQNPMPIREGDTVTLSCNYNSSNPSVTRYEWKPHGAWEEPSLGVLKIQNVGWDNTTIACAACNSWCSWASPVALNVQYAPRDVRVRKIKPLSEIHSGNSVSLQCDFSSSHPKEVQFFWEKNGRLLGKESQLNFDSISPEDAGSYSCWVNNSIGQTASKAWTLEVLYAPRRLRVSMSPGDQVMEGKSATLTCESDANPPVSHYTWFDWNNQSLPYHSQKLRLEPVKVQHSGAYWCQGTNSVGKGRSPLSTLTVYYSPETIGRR

[3] = target: T1, full-length human CD22 fused with flag …; test: cell-based or functional assay
[4] = target: T1, full-length human CD22 fused with flag …; test: ELISA, IgG format; antigen format not described
[5] = target: T1, full-length human CD22 fused with flag …; test: FACS, antibody fragment titrated on CD22-expressing cells, anti-His Alexa 488
[6] = target: T1, full-length human CD22 fused with flag …; test: cell-based or functional assay; remark: listed apart in the source
[7] = target: T1, full-length human CD22 fused with flag …; test: FACS on CD22 K562 cells, competitor 1.77 nM M971
[8] = target: T1, full-length human CD22 fused with flag …; test: FACS on CD22 K562 cells, competitor 5.13 nM M971
[9] = target: T1, full-length human CD22 fused with flag …; test: FACS on CD22 K562 cells, competitor 0.77 nM BL22
[10] = target: T1, full-length human CD22 fused with flag …; test: FACS on CD22 K562 cells, competitor 0.175 nM BL22
[11] = target: T1, full-length human CD22 fused with flag …; test: FACS on CD22 K562 cells, scFv alone (M971 binning experiment)
[12] = target: T1, full-length human CD22 fused with flag …; test: FACS on CD22 K562 cells, scFv alone (BL22 binning experiment)
[13] = target: T3, CD123 on the surface of CHO-K1 cells (UniProt P26951 19-378); test: FACS on CHO-K1 cells expressing CD123, anti-hFc Alexa 488
T3 construct: whole, on cells; Negative control cells that express CD123 but not CD22; also called CHOK1-CD123; cell surface CD123
T3 sequence (P26951 19-378 limits assumed): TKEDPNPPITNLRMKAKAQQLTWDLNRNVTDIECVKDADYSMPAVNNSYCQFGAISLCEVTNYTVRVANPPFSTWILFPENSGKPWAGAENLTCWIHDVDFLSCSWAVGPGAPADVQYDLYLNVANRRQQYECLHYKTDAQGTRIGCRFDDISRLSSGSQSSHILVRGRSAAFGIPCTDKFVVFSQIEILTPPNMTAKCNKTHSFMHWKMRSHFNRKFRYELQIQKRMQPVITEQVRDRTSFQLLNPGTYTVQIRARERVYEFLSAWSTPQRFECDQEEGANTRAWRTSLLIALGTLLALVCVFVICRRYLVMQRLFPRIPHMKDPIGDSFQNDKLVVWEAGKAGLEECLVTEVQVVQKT

[14] = target: T1, full-length human CD22 fused with flag …; test: FACS on CD22-expressing cells (HEK293-CD22 by the table's head), anti-hFc Alexa 488

- EC50 [1]: 1 nM
- Kd [2]: 3.57 nM
- koff [2]: 0.000145 s⁻¹
- kon [2]: 40500 M⁻¹ s⁻¹
B1: EP97-A10 scFv (scFv)
scFv: QVQLVQSGAEVKRPGASVKVSCKASGYTFTSYGISWVRQAPGQGLEWMGWISAYNGNTNYAQKLQGRVTMTTDTSTSTAYMELRSLRSDDTAVYYCARDPGIAVAGTVDYWGQGTLVTVSSGGGGSGGGGSGGGGSEIVMTQSPATLSVSPGEGVTLSCRASQSVSSNLAWYQQRPGQAPRLLIYGASIKATDVPDRFSGGGSGTDFTLSISNVQSEDFAVYYCQQYHTWTPVTFGGGTKVEIK
notes: VH-VL orientation; not shown: C-terminal flag and 6xHIS tag

- T½ (Hour) of internalization, CD22/HEK293 cells, pHrodo secondary [3]: 6.07 Hour
- EC50 [4]: 0.059 nM
B2: M971 IgG antibody (antibody, V domains shown)
VH: QVQLQQSGPGLVKPSQTLSLTCAISGDSVSSNSAAWNWIRQSPSRGLEWLGRTYYRSWYNDYAVSVKSRITINPDTSKNQFSLQLNSVTPEDTAVYYCAREVTGDLEDAFDIWGQGTMVTVSS
VL: DIQMTQSPSSLSASVGDRVTITCRASQTIWSYLNWYQQRPGKAPNLLIYAASSLQSGVPSRFSGRGSGTDFTLTISSLQAEDFATYYCQQSYSIPQTFGQGTKLEIK
notes: Known fully human anti-CD22 antibody used as IgG; also called IgG M971

- EC50 [1]: 0.7 nM
- Kd [2]: 0.846 nM
- koff [2]: 0.000318 s⁻¹
- kon [2]: 376000 M⁻¹ s⁻¹
B3: EP97-B03 scFv (scFv)
scFv: QLVQSGAEVKKPGASVKVSCKASGYTFSSYGITWVRQAPGQGLEWMGWISAYNGNTNYAQKFQGRVTLTTDTSTSIAYMELRSLTSDDTAVYYCATGGQEDYWGQGTLVTVSSGGGGSGGGGSGGGGSEIVLTQSPATLSVSPGERATLSCRASQSVSSNLAWYQQKPGQAPRLLIYGASTRATGIPARFSGSGSGTEFTLTISSLQSEDFAVYYCQQYNSWPPLTFGGGTKVEIK
notes: as for B1

- EC50 [1]: 2.79 nM
- Kd [2]: 5.89 nM
- koff [2]: 0.000283 s⁻¹
- kon [2]: 40500 M⁻¹ s⁻¹
B4: EP160-F04 scFv (scFv)
scFv: EVQLVQSGAEVKKPGASVKVSCKASGYTFTSYGISWVRQAPGQGLEWMGWISAYNGNTNYAQKLQGRVTMTTDTSTSTAYMELRSLKSDDTAVYYCAISIGAFDIWGQGTMVTVSSGGGGSGGGGSGGGGSEIVMTQSPATLSVSPGEEVTLSCRASQSVSSNLAWYQQRPGQAPRLLIYGASIKATDVPDRFSGGGSGTDFTLSISNLQSEDFAVYYCQQYHTWPPVTFGGGTKVEIK
notes: as for B1

- EC50 [5]: 9 nM
B5: EP160-F10 (a single domain antibody) (VHH)
VHH: EVQLVESGGGVVQPGRSLRLSCVASGFTFRNYGMQWVRQTPDKGLEWVAVTAHDGTVQYYVDSVKGRFTISRDNSKDTLYLQMNSLRVADTAVYYCAKEATPRAADHFDYWGQGTLGTVSS
notes: Human VH-only single domain antibody from a human library (not a camelid VHH); not shown: C-terminal flag and 6xHIS tag

- EC50 in ADCC assay (Promega ADCC Bioreporter, CD22/HEK293 target cells) [6]: 3.71 nM
- T½ (Hour) of internalization, CD22/HEK293 cells, pHrodo secondary [3]: 5.26 Hour
B6: EP97-B03 (IgG) (antibody, V domains shown)
VH: QLVQSGAEVKKPGASVKVSCKASGYTFSSYGITWVRQAPGQGLEWMGWISAYNGNTNYAQKFQGRVTLTTDTSTSIAYMELRSLTSDDTAVYYCATGGQEDYWGQGTLVTVSS
VL: not shown

- EC50 [1]: 1.1 nM
- Kd [2]: 0.322 nM
- koff [2]: 4.03e-05 s⁻¹
- kon [2]: 125000 M⁻¹ s⁻¹
B7: EP160-G04 scFv (scFv)
scFv: QVQLVQSGAEVKKPGASVKVSCKASGYTFSSYGITWVRQAPGQGLEWMGWISAYNGNTNYAQKFQGRVTLTTDTSTSIAYMELRSLTSDDTAVYYCATGGQEDYWGQGTLVTVSSGGGGSGGGGSGGGGSEIVMTQSPATLSVSPGERATLSCRASQSVSSNLAWYQQKPGQAPRLLIYDASTRATGIPARFSGSGSGTEFTLTISSLQSEDFAVYYCQQYHNWAPLTFGGGTKVGIK
notes: as for B1

- EC50 [7]: 0.0946 nM
- EC50 [8]: 0.144 nM
- IC50 [9]: 0.0898 nM
- IC50 [10]: 0.0811 nM
- EC50 [11]: 0.125 nM
- IC50 [12]: 0.0822 nM
- EC50 [1]: 0.24 nM
- Kd [2]: 0.0194 nM
- koff [2]: 0.000107 s⁻¹
- kon [2]: 5.51e+06 M⁻¹ s⁻¹
B8: EP160-D02 scFv (scFv)
scFv: QVQLVQSGAEVKKPGASVKVSCKASGYTFTSYGISWVRQAPGQGLEWMGWISAYNGNTNYAQKLQGRVTMTTDTSTSTAYMELRSLRSDDTAVYYCARDPLEPLESDYWGQGTLVTVSSGGGGSGGGGSGGGGSEIVMTQSPATLSVSPGEGVTLSCRASQSVSSNLAWYQQRPGQAPRLLIYGASIKATDVPDRFSGGGSGTDFSLSITNLQSEDFAVYYCQQYHTWPPVTFGGGTKVEIK
notes: VH-VL orientation; made in E. coli, His-tag purified; also called EP160-D2; not shown: C-terminal flag and 6xHIS tag

- EC50 in ADCC assay (Promega ADCC Bioreporter, CD22/HEK293 target cells) [6]: 1.95 nM
- T½ (Hour) of internalization, CD22/HEK293 cells, pHrodo secondary [3]: 5.06 Hour
- EC50 [4]: 0.039 nM
- binding result [13]: no binding
- EC50 [14]: 0.101 nM
B9: EP160-D02 (IgG) (antibody, V domains shown)
VH: QVQLVQSGAEVKKPGASVKVSCKASGYTFTSYGISWVRQAPGQGLEWMGWISAYNGNTNYAQKLQGRVTMTTDTSTSTAYMELRSLRSDDTAVYYCARDPLEPLESDYWGQGTLVTVSS
VL: EIVMTQSPATLSVSPGEGVTLSCRASQSVSSNLAWYQQRPGQAPRLLIYGASIKATDVPDRFSGGGSGTDFSLSITNLQSEDFAVYYCQQYHTWPPVTFGGGTKVEIK
notes: also called EP160-D2 (IgG)

- EC50 in ADCC assay (Promega ADCC Bioreporter, CD22/HEK293 target cells) [6]: ~73.8 nM
B10: EP160-H02 (IgG) (antibody, V domains shown)
VH: QVQLVQSGAEVKKPGASVKVSCKASGYTFTSYGISWVRQAPGQGLEWMGGIIAYNGNTNYAQKLQGRVTMTTDTSTSTAYMELRSLRSDDTAVYYCARDPPEYSSSAGTDYWGQGTLVTVSS
VL: B9 VL with S72T, P95S
